Measured values from the supplement of paper PMC10724198.
± gives the standard deviation of the averaged measurements.
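Further: PSI is a weighted mean of sequencing reads over stability bins, variants kept only with over 10 reads, mCherry proximal and sfGFP distal, peptide attached via GGGS linker.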

What follows are sequences tested on Saccharomyces cerevisiae (assay: protein stability index of tFT-peptide fusion (C-terminal peptide) (PSI (0-1 scale)); higher = more stable (slower turnover)). Conditions: genetic background: das1 deletion; temperature: 37 C.
Description: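 MPS profiling in S. cerevisiae of the tFT-X12 degron library: putative degron peptides plus stable controls, 12 aa, fused to the C-terminus of a sfGFP-mCherry timer. Cells are FACS-sorted into 8 mCherry/sfGFP bins and deep-sequenced. PSI runs from 0 (unstable) to 1 (stable). Backgrounds are wild type, das1Δ and doa10Δ at 30 °C, and wild type, das1Δ, cdc34-1 and cdc53-1 at 37 °C; 2-3 technical replicates each.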
MACLRLTVYVMG gave a protein stability index of 0.2187 ± 0.0016.
MALAVRVVACGA was tested, and the protein stability index was 0.281 ± 0.0065.
MFLHLGLFIMSH gave a protein stability index of 0.457 ± 0.0099.
Work on MFWKFVFRGFWF yielded a protein stability index of 0.7791 ± 0.0044.
MMEMMTKSNRIP gave a protein stability index of 0.709 ± 0.04.
MQFVALFLVGLL showed a protein stability index of 0.5245 ± 0.0022.
MRGPAWVCVLYS was tested, and the protein stability index was 0.69291 ± 0.00012.
Work on MSVLAFVCCLSG yielded a protein stability index of 0.393 ± 0.022.
NDVGGYFYVCSE was tested, and the protein stability index was 0.7142 ± 0.0056.
For NHKTIRIQNKSI, the protein stability index was 0.699 ± 0.0092.
Sequence NKYSMQNVLKSF has a protein stability index of 0.752 ± 0.017.
NLDRYYKKIKLI was tested, and the protein stability index was 0.733 ± 0.019.
For NLSYFFFSVLFF, the protein stability index was 0.693 ± 0.067.
NSCHFYSRFYLA gave a protein stability index of 0.70341 ± 0.00042.
NVALHPGVPRKC showed a protein stability index of 0.75 ± 0.031.
For NYCLYFKLSRLS, the protein stability index was 0.655 ± 0.021.
NYVFALFYMVVA gave a protein stability index of 0.3449 ± 0.0014.
Sequence PALPTPPVSPSP has a protein stability index of 0.465 ± 0.0057.
Sequence PCVPRLLPLQLS has a protein stability index of 0.758 ± 0.03.
Sequence PCYRPPLPALLS has a protein stability index of 0.705 ± 0.024.
Work on PDPIFGEWVYMV yielded a protein stability index of 0.7555 ± 0.0066.
For PFAFLSLVLLLP, the protein stability index was 0.5176 ± 0.0043.
PFFFIFVLPFVF was tested, and the protein stability index was 0.524 ± 0.0093.
With PFLLLVSPISSC the protein stability index was 0.4637 ± 0.0012.
In the case of PGFCFFLYYCMM, the protein stability index is reported as 0.562 ± 0.011.
PHGASLCVPPSP showed a protein stability index of 0.7271 ± 0.0072.
With PHGLKPHCPTPS the protein stability index was 0.7368 ± 0.0034.
PLRVFFLVAFCL was tested, and the protein stability index was 0.535 ± 0.015.
With PLSNLCRVLTFI the protein stability index was 0.6394 ± 0.0024.
Sequence PLSSHIPVHEAR has a protein stability index of 0.706 ± 0.011.
Sequence PPLTRVPLSISA has a protein stability index of 0.492 ± 0.012.
With PPPPLATTSAPL the protein stability index was 0.7118 ± 0.0031.
Work on PPSLFLLLKVFF yielded a protein stability index of 0.458 ± 0.005.
PPSPPPLSASVP showed a protein stability index of 0.698 ± 0.02.
For PRHLTPPPAPSA, the protein stability index was 0.708 ± 0.013.
PRHVLWLRRLLF was tested, and the protein stability index was 0.782 ± 0.029.
Sequence PRLRPQTVAFLS has a protein stability index of 0.721 ± 0.013.
Sequence PVGLMKRFRLFI has a protein stability index of 0.716 ± 0.023.
PVPPSLLHRPPF showed a protein stability index of 0.722 ± 0.018.
Work on PWAHIRTVQTYV yielded a protein stability index of 0.7626 ± 0.0066.
Work on PWFSWLLYSFLF yielded a protein stability index of 0.651 ± 0.029.
Sequence PYSLYASSSSPL has a protein stability index of 0.748 ± 0.019.
For QCSVRLKEIQFS, the protein stability index was 0.72 ± 0.028.
In the case of QERKILGRIKQA, the protein stability index is reported as 0.7081 ± 0.0052.
In the case of QITIYPIPLARF, the protein stability index is reported as 0.88 ± 0.0098.
In the case of QPSSFDMLGLLL, the protein stability index is reported as 0.752 ± 0.023.
RFKEKVSIIHKQ was tested, and the protein stability index was 0.74 ± 0.017.
Sequence RGYATTALHWVS has a protein stability index of 0.7395 ± 0.0034.
In the case of RHRGHVRLALLN, the protein stability index is reported as 0.791 ± 0.061.
Work on RICCLFILLFCL yielded a protein stability index of 0.477 ± 0.0084.
With RIEGTLTARTAF the protein stability index was 0.744 ± 0.013.
RITGCWKTYKMQ showed a protein stability index of 0.758 ± 0.055.
With RKNIKISKAGIG the protein stability index was 0.377 ± 0.012.
RKRTILVIIVVK gave a protein stability index of 0.461 ± 0.05.
RKVWSLCWFVHL showed a protein stability index of 0.65 ± 0.008.
With RLGRYSIIHCLA the protein stability index was 0.52 ± 0.021.
RLHCFSPILCPI was tested, and the protein stability index was 0.59601 ± 0.00033.
With RLIARFKILRCI the protein stability index was 0.635 ± 0.0085.
For RLINCIYVLMLP, the protein stability index was 0.606 ± 0.0037.
For RLLRGDRMVICS, the protein stability index was 0.615 ± 0.0066.
In the case of RLMLSWLALRRC, the protein stability index is reported as 0.689 ± 0.02.
RLPYSLTFFLLC was tested, and the protein stability index was 0.576 ± 0.0034.
RLVCPFYIACVW showed a protein stability index of 0.588 ± 0.014.
Sequence RNCSFRRIQLAM has a protein stability index of 0.715 ± 0.0059.
Work on RNKIWCTVIMRL yielded a protein stability index of 0.597 ± 0.02.
RPAVVPPPFAPL gave a protein stability index of 0.7172 ± 0.0055.
RQALYFLMICGL was tested, and the protein stability index was 0.545 ± 0.0071.
RRIKIRKQEYIS gave a protein stability index of 0.719 ± 0.018.
In the case of RRRRHVDHSTQR, the protein stability index is reported as 0.582 ± 0.011.
RTWLHLVVPVWG gave a protein stability index of 0.3778 ± 0.0024.
For RVGWVVVLGCVG, the protein stability index was 0.578 ± 0.012.
RVHFLIVFLCRF showed a protein stability index of 0.526 ± 0.012.
Sequence RVSIIYLGVLIS has a protein stability index of 0.436 ± 0.0092.
Sequence RVTYWKAVLVRL has a protein stability index of 0.6 ± 0.017.
With RYCVVDISAFCD the protein stability index was 0.5947 ± 0.0057.
RYLCLTPALYLS showed a protein stability index of 0.621 ± 0.0072.
Sequence SCFRFFFLFLFF has a protein stability index of 0.361 ± 0.016.
SCFRSLAVYFLC showed a protein stability index of 0.678 ± 0.01.

Same assay, conditions: genetic background: doa10 deletion; temperature: 30 C
Sequence MACLRLTVYVMG has a protein stability index of 0.088 ± 0.034.
MALAVRVVACGA was tested, and the protein stability index was 0.157 ± 0.012.
MFLHLGLFIMSH gave a protein stability index of 0.2787 ± 0.0023.
In the case of MFWKFVFRGFWF, the protein stability index is reported as 0.221 ± 0.0052.
Work on MMEMMTKSNRIP yielded a protein stability index of 0.4 ± 0.02.
MQFVALFLVGLL was tested, and the protein stability index was 0.308 ± 0.0095.
MRGPAWVCVLYS showed a protein stability index of 0.284 ± 0.0086.
MSVLAFVCCLSG gave a protein stability index of 0.2478 ± 0.0014.
NDVGGYFYVCSE gave a protein stability index of 0.63 ± 0.011.
Sequence NHKTIRIQNKSI has a protein stability index of 0.146 ± 0.0041.
NKYSMQNVLKSF gave a protein stability index of 0.249 ± 0.06.
NLDRYYKKIKLI gave a protein stability index of 0.052 ± 0.03.
With NLSYFFFSVLFF the protein stability index was 0.62 ± 0.022.
NSCHFYSRFYLA was tested, and the protein stability index was 0.243 ± 0.0054.
NVALHPGVPRKC showed a protein stability index of 0.664 ± 0.018.
NYCLYFKLSRLS was tested, and the protein stability index was 0.221 ± 0.02.
NYVFALFYMVVA showed a protein stability index of 0.19 ± 0.0089.
Sequence PALPTPPVSPSP has a protein stability index of 0.243 ± 0.014.
PCVPRLLPLQLS was tested, and the protein stability index was 0.216 ± 0.0089.
PCYRPPLPALLS gave a protein stability index of 0.395 ± 0.024.
For PDPIFGEWVYMV, the protein stability index was 0.249 ± 0.00039.
For PFAFLSLVLLLP, the protein stability index was 0.383 ± 0.027.
PFFFIFVLPFVF was tested, and the protein stability index was 0.318 ± 0.027.
Work on PFLLLVSPISSC yielded a protein stability index of 0.271 ± 0.0057.
PGFCFFLYYCMM gave a protein stability index of 0.368 ± 0.0053.
With PHGASLCVPPSP the protein stability index was 0.645 ± 0.02.
PHGLKPHCPTPS was tested, and the protein stability index was 0.674 ± 0.046.
With PLRVFFLVAFCL the protein stability index was 0.318 ± 0.026.
In the case of PLSNLCRVLTFI, the protein stability index is reported as 0.361 ± 0.0071.
PLSSHIPVHEAR gave a protein stability index of 0.674 ± 0.012.
For PPLTRVPLSISA, the protein stability index was 0.267 ± 0.0075.
Sequence PPPPLATTSAPL has a protein stability index of 0.668 ± 0.029.
Sequence PPSLFLLLKVFF has a protein stability index of 0.268 ± 0.0069.
For PPSPPPLSASVP, the protein stability index was 0.677 ± 0.024.
With PRHLTPPPAPSA the protein stability index was 0.66 ± 0.038.
Sequence PRHVLWLRRLLF has a protein stability index of 0.2 ± 0.016.
Work on PRLRPQTVAFLS yielded a protein stability index of 0.28 ± 0.02.
PVGLMKRFRLFI was tested, and the protein stability index was 0.332 ± 0.012.
With PVPPSLLHRPPF the protein stability index was 0.677 ± 0.011.
In the case of PWAHIRTVQTYV, the protein stability index is reported as 0.286 ± 0.0081.
With PWFSWLLYSFLF the protein stability index was 0.535 ± 0.016.
For PYSLYASSSSPL, the protein stability index was 0.6716 ± 0.0016.
In the case of QCSVRLKEIQFS, the protein stability index is reported as 0.209 ± 0.023.
QERKILGRIKQA showed a protein stability index of 0.0853 ± 0.0029.
QITIYPIPLARF gave a protein stability index of 0.808 ± 0.027.
Work on QPSSFDMLGLLL yielded a protein stability index of 0.671 ± 0.053.
With RFKEKVSIIHKQ the protein stability index was 0.11 ± 0.0081.
Work on RGYATTALHWVS yielded a protein stability index of 0.362 ± 0.0075.
Work on RHRGHVRLALLN yielded a protein stability index of 0.233 ± 0.025.
Work on RICCLFILLFCL yielded a protein stability index of 0.422 ± 0.0089.
RIEGTLTARTAF gave a protein stability index of 0.65 ± 0.01.
Work on RITGCWKTYKMQ yielded a protein stability index of 0.14145 ± 6.9e-05.
Work on RKNIKISKAGIG yielded a protein stability index of 0.31 ± 0.0041.
RKRTILVIIVVK showed a protein stability index of 0.186 ± 0.011.
In the case of RKVWSLCWFVHL, the protein stability index is reported as 0.0695 ± 0.0078.
For RLGRYSIIHCLA, the protein stability index was 0.0877 ± 0.015.
In the case of RLHCFSPILCPI, the protein stability index is reported as 0.402 ± 0.021.
With RLIARFKILRCI the protein stability index was 0.0618 ± 0.0034.
For RLINCIYVLMLP, the protein stability index was 0.261 ± 0.015.
RLLRGDRMVICS showed a protein stability index of 0.3601 ± 0.0008.
In the case of RLMLSWLALRRC, the protein stability index is reported as 0.351 ± 0.026.
RLPYSLTFFLLC was tested, and the protein stability index was 0.07289 ± 0.00032.
With RLVCPFYIACVW the protein stability index was 0.468 ± 0.015.
In the case of RNCSFRRIQLAM, the protein stability index is reported as 0.162 ± 0.0031.
RNKIWCTVIMRL was tested, and the protein stability index was 0.229 ± 0.01.
RPAVVPPPFAPL showed a protein stability index of 0.708 ± 0.018.
In the case of RQALYFLMICGL, the protein stability index is reported as 0.29391 ± 6e-05.
RRIKIRKQEYIS was tested, and the protein stability index was 0.185 ± 0.0051.
Work on RRRRHVDHSTQR yielded a protein stability index of 0.557 ± 0.038.
RTWLHLVVPVWG showed a protein stability index of 0.19 ± 0.0051.
Work on RVGWVVVLGCVG yielded a protein stability index of 0.366 ± 0.009.
In the case of RVHFLIVFLCRF, the protein stability index is reported as 0.398 ± 0.024.
RVSIIYLGVLIS gave a protein stability index of 0.0604 ± 0.011.
RVTYWKAVLVRL showed a protein stability index of 0.108 ± 0.025.
Work on RYCVVDISAFCD yielded a protein stability index of 0.37 ± 0.017.
Work on RYLCLTPALYLS yielded a protein stability index of 0.125 ± 0.017.
SCFRFFFLFLFF was tested, and the protein stability index was 0.4322 ± 0.00071.
Work on SCFRSLAVYFLC yielded a protein stability index of 0.0706 ± 0.0018.
